# Molecular target: T1, HLA-A*01:01_… (HLA-PEPTIDE target G2), recombinant biotinylated complex (human, enzymatically biotinylated (BirA))
# T1 construct: also called G2-pHLA
# Assay: phage panning, scFv ELISA;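 note: scFv binders from three to four bead panning rounds, tested as PPEs by ELISA on streptavidin plates carrying peptide-HLA complex (2 µg/ml), detected via anti-V5 and HRP anti-mouse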
# Procedure: Phage library screening was carried out according to the overall screening design described above. Three to four rounds of bead-based panning were performed to identify scFv binders to each peptide-HLA complex. For each round of panning, an aliquot of starting phage was set aside for input titering and the remaining phage was depleted three times against Dynabead M-280 streptavidin beads (Life Technologies) followed by a depletion against Streptavidin beads pre-bound with 100 μmoles of pooled negative peptide-HLA complexes. For the first round of panning, 100 μmoles of peptide-HLA complex bound to streptavidin beads was incubated with depleted phage for 2 hours at room temperature with rotation. Three five-minute washes with 0.5% BSA in 1×PBST (PBS+0.05% Tween-20) followed by three five-minute washes with 0.5% BSA in 1×PBS were utilized to remove any unbound phage to the peptide-HLA complex bound beads. To elute the bound phage from the washed beads, 1 ml 0.1M TEA was added and incubated for 10 minutes at room temperature with rotation. The eluted phage was collected from the beads and neutralized with 0.5 ml 1M Tris-HCl pH 7.5. The neutralized phage was then used to infect log growth TG-1 cells (OD₆₀₀=0.5) and after an hour of infection at 37° C., cells were plated onto 2YT media with 100 μg/ml carbenicillin and 2% glucose (2YTCG) agar plates for output titer and bacterial growth for subsequent panning rounds.
# 96-well and/or 384-well streptavidin coated plates (Pierce) were coated with 2 μg/ml peptide-HLA complex in HLA buffer and incubated overnight at 4° C. Plates were washed three times between each step with PBST (PBS+0.05%). The antigen coated plates were blocked with 3% BSA in PBS (blocking buffer) for 1 hour at room temperature. After washing, scFv PPEs were added to the plates and incubated at room temperature for 1 hour. Following washing, mouse anti-v5 antibody (Invitrogen) in blocking buffer was added to detect scFv and incubated at room temperature for 1 hour. After washing, HRP-goat anti-mouse antibody (Jackson ImmunoResearch) was added and incubated at room temperature for 1 hour.
row,binding result,Binder
1,binds,"G2(1C03) scFv (scFv, V domains shown) VH: QVQLVQSGAEVKKPGASVKVSCKASGYTFTTYYMHWVRQAPGQGLEWMGWINPNSGGTNYAQKFQGRVTMTRDTSTSTVYMELSSLRSEDTAVYYCARSDWFDPWGQGTLVTVSS VL: DIQMTQSPSSLSASVGDRVTITCRASQSVSNWLAWYQQKPGKAPKLLIYAASSLQSGVPSRFSGSGSGTDFTLTISSLQPEDFATYYCQQSYSTPTFGQGTKLEIK"
2,binds,"G2(2A10) scFv (scFv, V domains shown) VH: EVQLLESGAEVKKPGASVKVSCKASGYSFTDYIVHWVRQAPGQGLEWMGWINPYSGGTKYAQKFQGRVTMTRDTSTSTVYMELSSLRSEDTAVYYCARVLQEGMDVWGQGTLVTVSS VL: DIQMTQSPSSLSASVGDRVTITCRASQSISSYLNWYQQKPGKAPKLLIYGVSSLQSGVPSRFSGSGSGTDFTLTISSLQPEDFATYYCQQSYSNPTFGQGTKVEIK"
3,binds,"G2(1A10) scFv (scFv, V domains shown) VH: QVQLVQSGAEVKKPGASVKVSCKASGGTFSSYAFSWVRQAPGQGLEWMGWINPDTGYTRYAQKFQGRVTMTRDTSTSTVYMELSSLRSEDTAVYYCARGDYTGNWYFDLWGRGTLVTVSS VL: DIQMTQSPSSLSASVGDRVTITCRASRDIGRAVGWYQQKPGKAPKLLIYAASSLQSGVPSRFSGSGSGTDFTLTISSLQPEDFATYYCQQLDSYPFTFGPGTKVDIK"
4,binds,"G2(2E07) scFv (scFv, V domains shown) VH: QVQLVQSGAEVKKPGASVKVSCKASGGTFSSATISWVRQAPGQGLEWMGWIYPNSGGTVYAQKFQGRVTMTRDTSTSTVYMELSSLRSEDTAVYYCAATEWLGVWGQGTTVTVSS VL: DIQMTQSPSSLSASVGDRVTITCRASQSISTWLAWYQQKPGKAPKLLIYAASSLRSGVPSRFSGSGSGTDFTLTISSLQPEDFATYYCQQSYNTPYTFGQGTKLEIK"
5,binds,"G2(2H11) scFv (scFv, V domains shown) VH: QVQLVQSGAEVKKPGASVKVSCKASGYTFSDYYVHWVRQAPGQGLEWMGWINPNSGGTNYAQKFQGRVTMTRDTSTSTVYMELSSLRSEDTAVYYCARGEWFDPWGQGTLVTVSS VL: DIQMTQSPSSLSASVGDRVTITCRASQSISSWLAWYQQKPGKAPKLLIYAASTLQSGVPSRFSGSGSGTDFTLTISSLQPEDFATYYCQQSYSTPFTFGPGTKVDIK"
6,binds,"G2(2H10) scFv (scFv, V domains shown) VH: QVQLVQSGAEVKKPGASVKVSCKASGYSFTRYNMHWVRQAPGQGLEWMGWINPNSGGTNYAQKFQGRVTMTRDTSTSTVYMELSSLRSEDTAVYYCARDGYSGLDVWGKGTTVTVSS VL: DIQMTQSPSSLSASVGDRVTITCRASQSISSWLAWYQQKPGKAPKLLIYGASSLQSGVPSRFSGSGSGTDFTLTISSLQPEDFATYYCQQSYSVPYSFGQGTKLEIK"
7,binds,"G2(1G12) scFv (scFv, V domains shown) VH: QVQLVQSGAEVKKPGASVKVSCKASGYTFTSYLMHWVRQAPGQGLEWMGWISPNSGGTNYAQKFQGRVTMTRDTSTSTVYMELSSLRSEDTAVYYCARGDWFDPWGQGTLVTVSS VL: DIQMTQSPSSLSASVGDRVTITCQASQDISNYLNWYQQKPGKAPKLLIYGASRLQSGVPSRFSGSGSGTDFTLTISSLQPEDFATYYCQQSYSTPYTFGQGTKLEIK"
8,binds,"G2(2C06) scFv (scFv, V domains shown) VH: QVQLVQSGAEVKKPGASVKVSCKSSGYSFDSYVVNWVRQAPGQGLEWMGWINPNSGGTNYAQKFQGRVTMTRDTSTSTVYMELSSLRSEDTAVYYCARDWVLDYWGQGTLVTVSS VL: DIQMTQSPSSLSASVGDRVTITCRASQTISSWLAWYQQKPGKAPKLLIYAASSLQSGVPSRFSGSGSGTDFTLTISSLQPEDFATYYCQQSYSTPFTFGPGTKVDIK"
9,binds,"G2(1C09) scFv (scFv, V domains shown) VH: QVQLVQSGAEVKKPGASVKVSCKASGYTFSSYNMHWVRQAPGQGLEWMGWINGNTGGTNYAQKFQGRVTMTRDTSTSTVYMELSSLRSEDTAVYYCARGVNVDDFDYWGQGTLVTVSS VL: DIQMTQSPSSLSASVGDRVTITCRASQTISNYLNWYQQKPGKAPKLLIYAASNLQSGVPSRFSGSGSGTDFTLTISSLQPEDFATYYCQQSYSTPQTFGQGTKVEIK"
10,binds,"G2(1E05) scFv (scFv, V domains shown) VH: QVQLVQSGAEVKKPGASVKVSCKASGYTFTDYNMHWVRQAPGQGLEWMGWMNPNSGGTNYAQKFQGRVTMTRDTSTSTVYMELSSLRSEDTAVYYCAREEDYWGQGTLVTVSS VL: DIQMTQSPSSLSASVGDRVTITCRASQSIGRWLAWYQQKPGKAPKLLIYAASSLQSGVPSRFSGSGSGTDFTLTISSLQPEDFATYYCQQSYSTPYSFGQGTKVEIK"
11,binds,"G2(2C11) scFv (scFv, V domains shown) VH: QVQLVQSGAEVKKPGASVKVSCKASGGTFNNYAFSWVRQAPGQGLEWMGWINPNSGGTNYAQKFQGRVTMTRDTSTSTVYMELSSLRSEDTAVYYCARDGVAVASDYWGQGTLVTVSS VL: DIQMTQSPSSLSASVGDRVTITCRASQGISNYLAWYQQKPGKAPKLLIYAASTLQSGVPSRFSGSGSGTDFTLTISSLQPEDFATYYCQQSYSVPYSFGQGTKLEIK"
12,binds,"G2(2E03) scFv (scFv, V domains shown) VH: EVQLLQSGAEVKKPGSSVKVSCKASGGTFSSYAISWVRQAPGQGLEWMGWINPNSGGTISAPNFQGRVTMTRDTSTSTVYMELSSLRSEDTAVYYCARANWLDYWGQGTLVTVSS VL: DIQMTQSPSSLSASVGDRVTITCRASQSISRWLAWYQQKPGKAPKLLIYAASTVQSGVPSRFSGSGSGTDFTLTISSLQPEDFATYYCQQSYSTPYTFGQGTKLEIK"
13,binds,"G2(1H10) scFv (scFv, V domains shown) VH: QVQLVQSGAEVKKPGASVKVSCKASGGTFSSYAISWVRQAPGQGLEWMGWINPNNGGTNYAQKFQGRVTMTRDTSTSTVYMELSSLRSEDTAVYYCARDSGVGMDVWGQGTTVTVSS VL: DIQMTQSPSSLSASVGDRVTITCRASQSISKWLAWYQQKPGKAPKLLIYAASSLQSGVPSRFSGSGSGTDFTLTISSLQPEDFATYYCQQSYSAPYTFGQGTKVEIK"
14,binds,"G2(2B08) scFv (scFv, V domains shown) VH: QVQLVQSGAEVKKPGASVKVSCKASGYTLTSHLIHWVRQAPGQGLEWMGWINPNSGGTNYAQKFQGRVTMTRDTSTSTVYMELSSLRSEDTAVYYCARERRSGMDVWGQGTTVTVSS VL: DIQMTQSPSSLSASVGDRVTITCRASQGISNYLAWYQQKPGKAPKLLIYAASRLESGVPSRFSGSGSGTDFTLTISSLQPEDFATYYCQQSYSIPLTFGGGTKVEIK"
15,binds,"G2(1D03) scFv (scFv, V domains shown) VH: QVQLVQSGAEVKKPGASVKVSCKASGYTFTRYTINWVRQAPGQGLEWMGWINPNSGGANYAQKFQGRVTMTRDTSTSTVYMELSSLRSEDTAVYYCARGDWFDPWGQGTLVTVSS VL: DIQMTQSPSSLSASVGDRVTITCRASQSISTWLAWYQQKPGKAPKLLIYAASTLQSGVPSRFSGSGSGTDFTLTISSLQPEDFATYYCQQSYSTPYTFAQGTKLEIK"
16,binds,"G2(1D07) scFv (scFv, V domains shown) VH: QVQLVQSGAEVKKPGASVKVSCKASGYTFTSYGISWVRQAPGQGLEWMGWISAYNGYTNYAQNLQGRVTMTRDTSTSTVYMELSSLRSEDTAVYYCARDQFYGGNSGGHDYWGQGTLVTVSS VL: DIQMTQSPSSLSASVGDRVTITCQASQDISNYLNWYQQKPGKAPKLLIYAASSLQSGVPSRFSGSGSGTDFTLTISSLQPEDFATYYCQQSYSTPLTFGGGTKLEIK"
17,binds,"G2(1C02) scFv (scFv, V domains shown) VH: QVQLVQSGAEVKKPGASVKVSCKASGYTFTSYGISWVRQAPGQGLEWMGWINPNSGGTNYAQKFQGRVTMTRDTSTSTVYMELSSLRSEDTAVYYCARGWELGYWGQGTLVTVSS VL: DIQMTQSPSSLSASVGDRVTITCRASQSISNWLAWYQQKPGKAPKLLIYAASSLQSGVPSRFSGSGSGTDFTLTISSLQPEDFATYYCQQSYSAPYTFGPGTKVDIK"
18,binds,"G2(1F12) scFv (scFv, V domains shown) VH: QVQLVQSGAEVKKPGASVKVSCKASGYTFTDYYMHWVRQAPGQGLEWMGWIYPNTGGTNYAQKFQGRVTMTRDTSTSTVYMELSSLRSEDTAVYYCARDYGGYVDYWGQGTLVTVSS VL: DIQMTQSPSSLSASVGDRVTITCQASQDIGSWLAWYQQKPGKAPKLLIYATSSLQSGVPSRFSGSGSGTDFTLTISSLQPEDFATYYCQQSYSTPYTFGQGTKLEIK"
19,binds,"G2(1B10) scFv (scFv, V domains shown) VH: EVQLLESGAEVKKPGASVKVSCKASGYTFTSYGISWVRQAPGQGLEWMGWINPYSGGTNYAQKLQGRVTMTRDTSTSTVYMELSSLRSEDTAVYYCARANWLDYWGQGTLVTVSS VL: DIQMTQSPSSLSASVGDRVTITCRASQSISSWLAWYQQKPGKAPKLLIYAASTLQSGVPSRFSGSGSGTDFTLTISSLQPEDFATYYCQQSYSSPYTFGPGTKVDIK"
20,binds,"G2(1G01) scFv (scFv, V domains shown) VH: QVQLVQSGAEVKKPGASVKVSCKASGYTFTSYGISWVRQAPGQGLEWMGWMNPNSGGTNYAQKFQGRVTMTRDTSTSTVYMELSSLRSEDTAVYYCARGEWLDYWGQGTLVTVSS VL: DIQMTQSPSSLSASVGDRVTITCRASQTISSWLAWYQQKPGKAPKLLIYAASSLQSGVPSRFSGSGSGTDFTLTISSLQPEDFATYYCQQSYGVPYTFGQGTKVEIK"
21,binds,"G2(1G03) scFv (scFv, V domains shown) VH: EVQLLESGAEVKKPGASVKVSCKASGYTFTSYAMNWVRQAPGQGLEWMGWMNPNSGGTKYAQKFQGRVTMTRDTSTSTVYMELSSLRSEDTAVYYCAREGPAALDVWGQGTLVTVSS VL: DIQMTQSPSSLSASVGDRVTITCRASQGISRWLAWYQQKPGKAPKLLIYAASTLQPGVPSRFSGSGSGTDFTLTISSLQPEDFATYYCQQSYIAPFTFGPGTKVDIK"
22,binds,"G2(1G07) scFv (scFv, V domains shown) VH: QVQLVQSGAEVKKPGASVKVSCKASGGTFSNYAINWVRQAPGQGLEWMGWISPYSGGTNYAQKFQGRVTMTRDTSTSTVYMELSSLRSEDTAVYYCARDSGSYFDYWGQGTLVTVSS VL: DIQMTQSPSSLSASVGDRVTITCQASQDISNYLNWYQQKPGKAPKLLIYAASTLQSGVPSRFSGSGSGTDFTLTISSLQPEDFATYYCQQTYAIPLTFGGGTKVEIK"

# Reference: US20240059797A1 (GRITSTONE BIO, published 2024)
